Legend:
IL23R_huFC = biological target: T1, IL23R_huFC (human, UniProt Q5VWK5 24-353); experiment: IL23-IL23R competitive ELISA, IC50 grade
T1 sequence (looked up): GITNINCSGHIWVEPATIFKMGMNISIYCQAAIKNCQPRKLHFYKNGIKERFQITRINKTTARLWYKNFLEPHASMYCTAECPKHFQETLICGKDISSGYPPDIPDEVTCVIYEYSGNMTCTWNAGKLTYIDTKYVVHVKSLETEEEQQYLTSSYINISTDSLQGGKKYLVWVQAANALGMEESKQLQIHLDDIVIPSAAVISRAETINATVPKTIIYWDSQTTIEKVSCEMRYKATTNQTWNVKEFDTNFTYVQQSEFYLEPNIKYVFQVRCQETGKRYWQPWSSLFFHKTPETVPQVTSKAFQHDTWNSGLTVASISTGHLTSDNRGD

[1] = biological target: mixture of IL-12Rβ1_huFC and IL-23R_huFC (mixed surface) (human, UniProt P42701 24-540; Q5VWK5 24-353, limits assumed); experiment: SPR, mixed surface of IL-12Rβ1 and IL-23R

Binder | IC50 (IL23R_huFC) [nM] | fold of affinity against Compound C [1] [fold]
CADWVCYWHTFGAK (not fully specified; Ac-; [β-Ala]; [(D)Lys]; DIG through Lysine) [(Ac-CADWVCYWHTFG-[β-Ala]-[(D)Lys]-OH)2DIG] | 25 to 100 | 
Recombinant human IL-23 (Humanzyme) (ligand) chain 1: RAVPGGSSPAWTQCQQLSQKLCTLAWSAHPLVGHMDLREEGDEETTNDVPHIQCGDGCDPQGLRDNSQFCLQRIHQGLIFYEKLLGSDIFTGEPSLLPDSPVGQLHASLLGLSQLLQPEGHHWETQQIPSLSPSQPWQRLLLRFKILRSLQAFVAVAARVFAHGAATLSP chain 2: IWELKKDVYVVELDWYPDAPGEMVVLTCDTPEEDGITWTLDQSSEVLGSGKTLTIQVKEFGDAGQYTCHKGGEVLSHSLLLLHKKEDGIWSTDILKDQKEPKNKTFLRCEAKNYSGRFTCWWLTTISTDLTFSVKSSRGSSDPQGVTCGAATLSAERVRGDNKEYEYSVECQEDSACPAAEESLPIEVMVDAVHKLKYENYTSSFFIRDIIKPDPPKNLQLKPLKNSRQVEVSWEYPDTWSTPHSYFSLTFCVQVQGKSKREKKDRVFTDKTSATVICRKNASISVRAQDRYYSSSWSEWASVPCS |  | ~14

Reference: patent US20190300590A1 (PROTAGONIST THERAPEUTICS, published 2019)
